In patent US20250250357A1 (NANJING ZAIMING PHARMACEUTICAL, published 2025):
Numbering of substitutions follows the chain as printed. Names may count otherwise.

B1: F7.33.24-H1 (scFv, not shown: small tags and cut ends)
scFv: EVQLVQSGAEVKKPGASVKVSCKASGYTFTSYWMHWVRQAPGQRLEWMGNVNPSNGGSNYNEKFKNRVTITVDKSASTAYMELSSLRSEDTAVYYCAPHYIGSRPGFAYWGQGTLVTVSSGGGGSGGGGSGGGGSDIVMTQSPDSLAVSLGERATINCKASQNVGTNIAWYQQKPGQSPKALIYSASYRYSGVPDRFSGSGSGTDFTLTISSLQAEDVAVYYCQQYNSYPLTFGGGTKVEIK
notes: also called S009-F7.33.24 humanized antibody VH1 + VL1
B2: F7.33.24-H4 (scFv, not shown: small tags and cut ends)
scFv: B1 scFv with N55S
notes: also called S009-F7.33.24 humanized antibody VH1a + VL1
B3: F7.33.24-H10 (scFv, not shown: small tags and cut ends)
scFv: B1 scFv with R44G, G56A
notes: also called S009-F7.33.24 humanized antibody VH2a + VL1
B4: F7.33.24-H7 (scFv, not shown: small tags and cut ends)
scFv: B1 scFv with R44G
notes: also called S009-F7.33.24 humanized antibody VH2 + VL1
B5: F7.33.24-H2 (scFv, not shown: small tags and cut ends)
scFv: EVQLVQSGAEVKKPGASVKVSCKASGYTFTSYWMHWVRQAPGQRLEWMGNVNPSNGGSNYNEKFKNRVTITVDKSASTAYMELSSLRSEDTAVYYCAPHYIGSRPGFAYWGQGTLVTVSSGGGGSGGGGSGGGGSDIVMTQTPLSLSVTPGQPASISCKASQNVGTNIAWYLQKPGQSPQALIYSASYRYSGVPDRFSGSGSGTDFTLKISRVEAEDVGVYYCQQYNSYPLTFGGGTKVEIK
notes: also called S009-F7.33.24 humanized antibody VH1 + VL2
B6: F7.33.24-H9 (scFv, not shown: small tags and cut ends)
scFv: B5 scFv with R44G, L172Q
notes: also called S009-F7.33.24 humanized antibody VH2 + VL3
B7: F7.33.24-H8 (scFv, not shown: small tags and cut ends)
scFv: B5 scFv with R44G
notes: also called S009-F7.33.24 humanized antibody VH2 + VL2
B8: F7.33.24-H5 (scFv, not shown: small tags and cut ends)
scFv: B5 scFv with N55S
notes: also called S009-F7.33.24 humanized antibody VH1a + VL2
B9: F7.33.24-H3 (scFv, not shown: small tags and cut ends)
scFv: B5 scFv with L172Q
notes: also called S009-F7.33.24 humanized antibody VH1 + VL3
B10: F7.33.24-H6 (scFv, not shown: small tags and cut ends)
scFv: B5 scFv with N55S, L172Q
notes: also called S009-F7.33.24 humanized antibody VH1a + VL3
B11: Tab110 (scFv, not shown: small tags and cut ends)
scFv: QQQLEESGGGLVKPEGSLTLTCKASGFDLGFYFYACWVRQAPGKGLEWIACIYTAGSGSTYYASWAKGRFTISKASSTTVTLQMTSLAAADTATYFCARSTANTRSTYYLNLWGPGTLVTVSSGGGGSGGGGSGGGGSDVVMTQTPASVSEPVGGTVTIKCQASQRISSYLSWYQQKPGQRPKLLIFGASTLASGVPSRFKGSGSGTEYTLTISDLECADAATYYCQSYAYFDSNNWHAFGGGTEVVV
notes: also called YP218 VH-(G4S)3-VL-his antibody; positive control
B12: Tab111 (scFv, not shown: small tags and cut ends)
scFv: DVVMTQTPASVSEPVGGTVTIKCQASQRISSYLSWYQQKPGQRPKLLIFGASTLASGVPSRFKGSGSGTEYTLTISDLECADAATYYCQSYAYFDSNNWHAFGGGTEVVVGGGGSGGGGSGGGGSQQQLEESGGGLVKPEGSLTLTCKASGFDLGFYFYACWVRQAPGKGLEWIACIYTAGSGSTYYASWAKGRFTISKASSTTVTLQMTSLAAADTATYFCARSTANTRSTYYLNLWGPGTLVTVSS
notes: also called YP218 VL-(G4S)3-VH-his antibody; positive control

Molecular target: T1, human MSLN-hFc protein (Acro, Cat. No. MSN-H5253) (human, UniProt Q13421 296-580)
T1 construct: the method names the coated protein as human MSLN-hFc (Acro); also called human MSLN full-length protein
T1 sequence (Q13421 other isoform, or with tags, fused parts or gaps limits assumed): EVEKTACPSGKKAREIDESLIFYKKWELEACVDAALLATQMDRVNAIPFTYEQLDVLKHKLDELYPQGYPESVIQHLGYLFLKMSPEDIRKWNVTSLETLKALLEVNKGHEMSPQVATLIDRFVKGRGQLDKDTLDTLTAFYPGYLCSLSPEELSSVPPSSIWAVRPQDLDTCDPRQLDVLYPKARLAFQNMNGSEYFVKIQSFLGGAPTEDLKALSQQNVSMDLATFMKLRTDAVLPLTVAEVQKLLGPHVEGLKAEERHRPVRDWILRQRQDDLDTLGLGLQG
Experiment: ELISA on coated antigen, antibody 1 nM

Binder	OD450
B1	0.59 OD450
B2	0.45 OD450
B3	0.51 OD450
B4	0.48 OD450
B5	0.4 OD450
B6	0.66 OD450
B7	0.48 OD450
B8	0.33 OD450
B9	0.91 OD450
B10	0.45 OD450

Molecular target: T2, human MSLN-R3 protein (human, UniProt Q13421 487-598)
T2 construct: also called hMSLN-R3
T2 sequence (Q13421 495-606, form in doubt): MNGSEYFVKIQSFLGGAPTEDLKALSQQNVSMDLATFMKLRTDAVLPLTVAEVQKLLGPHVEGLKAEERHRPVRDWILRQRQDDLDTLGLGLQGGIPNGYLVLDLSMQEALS
Experiment: ELISA on coated antigen, antibody 1 nM

Binder	OD450
B11	0.06 OD450
B12	0.51 OD450

Molecular target: T2, human MSLN-R3 protein
Experiment: ELISA on coated antigen, antibody 1 nM
Remark: another data set of the same source

Binder	OD450
B1	0.52 OD450
B2	0.45 OD450
B3	0.55 OD450
B4	0.33 OD450
B5	0.42 OD450
B6	0.82 OD450
B7	0.63 OD450
B8	0.39 OD450
B9	0.89 OD450
B10	0.53 OD450
B11	0.06 OD450
B12	0.51 OD450

Molecular target: T1, human MSLN-hFc protein (Acro, Cat. No. …)
Experiment: ELISA on coated antigen, antibody 10 nM

Binder	OD450
B1	2.53 OD450
B2	2.21 OD450
B3	2.28 OD450
B4	2.32 OD450
B5	2.07 OD450
B6	2.49 OD450
B7	2.04 OD450
B8	1.91 OD450
B9	2.58 OD450
B10	2.36 OD450

Molecular target: T2, human MSLN-R3 protein
Experiment: ELISA on coated antigen, antibody 10 nM

Binder	OD450
B11	0.78 OD450
B12	1.88 OD450

Molecular target: T2, human MSLN-R3 protein
Experiment: ELISA on coated antigen, antibody 10 nM
Remark: another data set of the same source

Binder	OD450
B1	1.61 OD450
B2	1.64 OD450
B3	1.85 OD450
B4	1.52 OD450
B5	1.62 OD450
B6	2.08 OD450
B7	1.92 OD450
B8	1.53 OD450
B9	1.86 OD450
B10	1.74 OD450
B11	0.78 OD450
B12	1.88 OD450

Molecular target: T1, human MSLN-hFc protein (Acro, Cat. No. …)
Experiment: ELISA on coated antigen, antibody 0.1 nM

Binder	OD450
B1	0.1 OD450
B2	0.08 OD450
B3	0.09 OD450
B4	0.1 OD450
B5	0.08 OD450
B6	0.1 OD450
B7	0.09 OD450
B8	0.07 OD450
B9	0.13 OD450
B10	0.08 OD450

Molecular target: T1, human MSLN-hFc protein (Acro, Cat. No. …)
Experiment: ELISA on coated antigen, antibody 100 nM

Binder	OD450
B1	2.9 OD450
B2	2.95 OD450
B3	3.03 OD450
B4	2.79 OD450
B5	2.91 OD450
B6	2.78 OD450
B7	2.7 OD450
B8	2.85 OD450
B9	2.93 OD450
B10	2.96 OD450

Molecular target: T2, human MSLN-R3 protein
Experiment: ELISA on coated antigen, antibody 0.1 nM

Binder	OD450
B11	0.04 OD450
B12	0.09 OD450

Molecular target: T2, human MSLN-R3 protein
Experiment: ELISA on coated antigen, antibody 100 nM

Binder	OD450
B11	0.98 OD450
B12	2.1 OD450

Molecular target: T2, human MSLN-R3 protein
Experiment: ELISA on coated antigen, antibody 0.1 nM
Remark: another data set of the same source

Binder	OD450
B1	0.08 OD450
B2	0.07 OD450
B3	0.08 OD450
B4	0.06 OD450
B5	0.06 OD450
B6	0.11 OD450
B7	0.09 OD450
B8	0.06 OD450
B9	0.13 OD450
B10	0.07 OD450
B11	0.04 OD450
B12	0.09 OD450

Molecular target: T2, human MSLN-R3 protein
Experiment: ELISA on coated antigen, antibody 100 nM
Remark: another data set of the same source

Binder	OD450
B1	1.93 OD450
B2	1.95 OD450
B3	2.26 OD450
B4	1.95 OD450
B5	1.9 OD450
B6	2.25 OD450
B7	2.16 OD450
B8	1.92 OD450
B9	1.91 OD450
B10	1.98 OD450
B11	0.98 OD450
B12	2.1 OD450

Molecular target: T1, human MSLN-hFc protein (Acro, Cat. No. …)
Experiment: ELISA on coated antigen, antibody 0.01 nM

Binder	OD450
B1	0.05 OD450
B2	0.07 OD450
B3	0.05 OD450
B4	0.05 OD450
B5	0.05 OD450
B6	0.05 OD450
B7	0.05 OD450
B8	0.04 OD450
B9	0.06 OD450
B10	0.05 OD450

Molecular target: T2, human MSLN-R3 protein
Experiment: ELISA on coated antigen, antibody 0.01 nM

Binder	OD450
B11	0.04 OD450
B12	0.05 OD450

Molecular target: T2, human MSLN-R3 protein
Experiment: ELISA on coated antigen, antibody 0.01 nM
Remark: another data set of the same source

Binder	OD450
B1	0.04 OD450
B2	0.04 OD450
B3	0.04 OD450
B4	0.04 OD450
B5	0.04 OD450
B6	0.05 OD450
B7	0.05 OD450
B8	0.04 OD450
B9	0.04 OD450
B10	0.04 OD450
B11	0.04 OD450
B12	0.05 OD450

Molecular target: T1, human MSLN-hFc protein (Acro, Cat. No. …)
Experiment: ELISA on coated antigen, antibody 0.001 nM

Binder	OD450
B1	0.04 OD450
B2	0.05 OD450
B3	0.04 OD450
B4	0.06 OD450
B5	0.05 OD450
B6	0.04 OD450
B7	0.05 OD450
B8	0.05 OD450
B9	0.05 OD450
B10	0.05 OD450

Molecular target: T2, human MSLN-R3 protein
Experiment: ELISA on coated antigen, antibody 0.001 nM

Binder	OD450
B11	0.04 OD450
B12	0.05 OD450

Molecular target: T2, human MSLN-R3 protein
Experiment: ELISA on coated antigen, antibody 0.001 nM
Remark: another data set of the same source

Binder	OD450
B1	0.04 OD450
B2	0.04 OD450
B3	0.05 OD450
B4	0.04 OD450
B5	0.04 OD450
B6	0.04 OD450
B7	0.04 OD450
B8	0.04 OD450
B9	0.04 OD450
B10	0.04 OD450
B11	0.04 OD450
B12	0.05 OD450

Molecular target: T1, human MSLN-hFc protein (Acro, Cat. No. …)
Experiment: ELISA on coated antigen, antibody 0.0001 nM

Binder	OD450
B1	0.05 OD450
B2	0.05 OD450
B3	0.04 OD450
B4	0.05 OD450
B5	0.05 OD450
B6	0.05 OD450
B7	0.05 OD450
B8	0.05 OD450
B9	0.05 OD450
B10	0.05 OD450

Molecular target: T2, human MSLN-R3 protein
Experiment: ELISA on coated antigen, antibody 0.0001 nM

Binder	OD450
B11	0.05 OD450
B12	0.05 OD450

Molecular target: T2, human MSLN-R3 protein
Experiment: ELISA on coated antigen, antibody 0.0001 nM
Remark: another data set of the same source

Binder	OD450
B1	0.04 OD450
B2	0.04 OD450
B3	0.05 OD450
B4	0.04 OD450
B5	0.04 OD450
B6	0.04 OD450
B7	0.05 OD450
B8	0.04 OD450
B9	0.04 OD450
B10	0.04 OD450
B11	0.05 OD450
B12	0.05 OD450
